Test results taken from US20050142131A1 (Eli Lilly, published 2005).

Key:
β-amyloid peptide (1-42) [1] = biological target: T1, β-amyloid peptide (1-42) (UniProt P05067 672-713); test: BIAcore 2000 SPR; antibody captured, Aβ flowed over; biphasic, first affinity; Aβ 1-42; biphasic, high-affinity component
T1 construct: range 1-42; The range 1-42 counts on the Aβ peptide, not on the APP precursor; also called Aβ 1-42; Amyloid-beta 1-42
Procedure: (§1) Antibody affinity (KD=Kd/Ka) was determined using a BIAcore biosensor 2000 and data analyzed with BIAevaluation (v. 3.1) software. A capture antibody (rabbit anti-mouse Ig or anti-human Ig) was coupled via free amine groups to carboxyl groups on flow cell 2 of a biosensor chip (CM5) using N-ethyl-N-dimethylaminopropyl carbodiimide and N-hydroxysuccinimide (EDC/NHS). A non-specific rabbit IgG was coupled to flow cell 1 as a background control. Monoclonal antibodies were captured to yield 300 resonance units (RU). […] To regenerate the chip, bound anti-Aβ antibody was eluted from the chip using a wash with glycine-HCl (pH 2). A control injection containing no amyloid-beta served as a control for baseline subtraction.

Amyloid-beta 1-40 = biological target: T2, Amyloid-beta 1-40 (UniProt P05067 672-711); test: BIAcore 2000 SPR; antibody captured by anti-human Ig, Aβ flowed over; Aβ 1-40; monophasic
T2 construct: range 1-40; The range 1-40 counts on the Aβ peptide, not on the APP precursor; also called Aβ 1-40
Procedure: as §1

β-amyloid peptide (1-42) [2] = biological target: T1, β-amyloid peptide (1-42); test: competitive ELISA on coated Aβ 1-42 against biotinylated Mu10D5; mean of three experiments (SD 0.6 µg/mL), second set; second set of three experiments (SD 0.6 µg/mL)
Procedure: (§2) After washing the wells with phosphate buffered saline (PBS) containing 0.1% Tween 20 (Washing Buffer) using an ELISA plate washer, the wells were blocked by adding 300 μL of SuperBlock reagent (Pierce) per well. After 30 minutes of blocking, the wells were washed with Washing Buffer and excess liquid was removed.
(§3) As a background control, 100 μl of ELISA Buffer was added. The ELISA plate was incubated at room temperature for 90 min. […] The plate was incubated at room temperature for 30 min and washed with Washing Buffer. For color development, 100 μl/well of ABTS Peroxidase Substrate (Kirkegaard & Perry Laboratories) was added. Color development was stopped by adding 100 μl/well of 2% oxalic acid. […] The absorbances were plotted against the log of the competitor concentration, curves were fit to the data points (using Prism) and the IC50 was determined for each antibody using methods well-known in the art.

human Aβ fragment 10-20 = biological target: T3, human Aβ fragment 10-20 (human, UniProt P05067 681-691); test: BIAcore, single concentration of peptide
T3 construct: range 10-20; also called human amyloid beta 10-20
T3 peptide (looked up): YEVHHQKLVFF
Source text: (§4) All dilutions were made with HEPES buffered saline containing Tween 20. A single concentration of a variety of fragments of human Aβ or mouse Aβ 1-40 (BioSource International) was used.

[3] = biological target: T4, human amyloid beta fragment 1-20 (human, UniProt P05067 672-691); test: BIAcore, single concentration of peptide
T4 construct: range 1-20; also called human Aβ 1-20
T4 peptide (looked up): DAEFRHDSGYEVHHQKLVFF
Source text: as §4

mouse Aβ 1-40 = biological target: T5, mouse Aβ 1-40 (mouse, UniProt P12023 672-711); test: BIAcore, single concentration of peptide
T5 construct: range 1-40; The range counts on the Aβ peptide, not on the mouse APP precursor
T5 peptide (looked up): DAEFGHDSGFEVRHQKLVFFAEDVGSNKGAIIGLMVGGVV
Source text: as §4

[4] = biological target: T6, human amyloid beta fragment 1-10 (human, UniProt P05067 672-681); test: BIAcore, single concentration of peptide
T6 construct: range 1-10; also called human Aβ 1-10
T6 peptide (looked up): DAEFRHDSGY
Source text: as §4

human Aβ fragment 16-25 = biological target: T7, human Aβ fragment 16-25 (human, UniProt P05067 687-696); test: BIAcore, single concentration of peptide
T7 construct: range 16-25; also called human amyloid beta 16-25
T7 peptide (looked up): KLVFFAEDVG
Source text: as §4

β-amyloid peptide (1-42) [5] = biological target: T1, β-amyloid peptide (1-42); test: BIAcore 2000 SPR; antibody captured, Aβ flowed over; biphasic, second affinity; Aβ 1-42; biphasic, low-affinity component
Procedure: as §1

β-amyloid peptide (1-42) [6] = biological target: T1, β-amyloid peptide (1-42); test: competitive ELISA on coated Aβ 1-42 against biotinylated Mu10D5; mean of three experiments (SD 11.8 µg/mL), first set; first set of three experiments (SD 11.8 µg/mL)
Procedure: as §2, §3

B1: humanized 10D5 antibody (antibody, human IgG1, kappa, V domains shown)
VH: QVTLKESGPVLVKPTETLTLTCTFSGFSLSTSGMGVSWIRQPPGKALEWLAHIYWDDDKRYNPSLKSRLTISKDTSKSQVVLTMTNMDPVDTATYYCVRRPITPVLVDAMDYWGQGTLVTVSS
VL: DVVMTQSPLSLPVTLGQPASISCRSSQNIIHSNGNTYLEWYLQKPGQSPRLLIYKVSNRFSGVPDRFSGSGSGTDFTLKISRVEAEDVGVYYCFQGSHVPLTFGGGTKVEIKR
notes: also called Hu10D5
β-amyloid peptide (1-42) [1]
  Kd: 0.19 nM
Amyloid-beta 1-40
  Kd: 209 nM
β-amyloid peptide (1-42) [2]
  IC50: 16 µg/mL
Human Aβ fragment 10-20
  binding result: no binding
[3]
  binding result: binds
Mouse Aβ 1-40
  binding result: no binding
[4]
  binding result: binds
Human Aβ fragment 16-25
  binding result: no binding
β-amyloid peptide (1-42) [5]
  Kd: 1020 nM
β-amyloid peptide (1-42) [6]
  IC50: 49.1 µg/mL
